Results from article PMC4643051.

What was measured:
[1] = target: NS1^HA mutant S114A (Dengue virus type 2 (DENV-2), strain 16681); assay: co-IP
[2] = target: NS1^HA mutant W115A (Dengue virus type 2 (DENV-2), strain 16681); assay: co-IP

Question: How did the fold reduction of co-precipitated Envelope against wild-type NS1^HA [1] turn out when “Envelope protein (E) of Dengue virus (from UniProt P29990) (natural protein)” was run?
Answer: 7.5 fold

Question: What about the fold reduction of co-precipitated Envelope against wild-type NS1^HA [2] of the same substance?
Answer: 3.8 fold
